According to publication PMC3543441:

How the values were obtained:
[1] = biological target: C-terminal truncated Entamoeba histolytica ornithine decarboxylase (EhODCΔ15) (Entamoeba histolytica); experiment: SEC; HiLoad 16/60 Superdex 200, purified protein at 5 mg/ml injected, 0.5 ml/min; elution compared with Gel Filtration HMW Calibration kit markers; eluted at 74 ml
[2] = biological target: C-terminal truncated Entamoeba histolytica ornithine decarboxylase (EhODCΔ15) (Entamoeba histolytica); experiment: crystal structure; sitting drop, 20% PEG 3350, 0.2 M LiCl, pH 6.8, 20°C; P212121, four molecules per asymmetric unit; molecular replacement with human ODC (PDB 2ON3); apo-enzyme

For “C-terminal truncated Entamoeba histolytica ornithine decarboxylase (EhODCΔ15) (enzyme)”, the stoichiometry N [1] was 2 and the stoichiometry N [2] was 4.
